From publication PMC5966032 (Nature, 2018)

Target: the molecule itself
Assay: crystal structure

B1: Δ25 construct of chicken ASIC1a (domain or fragment, UniProt Q1XA76 25-463, looked up)
chain: SSTLHGISHIFSYERLSLKRVVWALCFMGSLALLALVCTNRIQYYFLYPHVTKLDEVAATRLTFPAVTFCNLNEFRFSRVTKNDLYHAGELLALLNNRYEIPDTQTADEKQLEILQDKANFRNFKPKPFNMLEFYDRAGHDIREMLLSCFFRGEQCSPEDFKVVFTRYGKCYTFNAGQDGKPRLITMKGGTGNGLEIMLDIQQDEYLPVWGETDETSFEAGIKVQIHSQDEPPLIDQLGFGVAPGFQTFVSCQEQRLIYLPPPWGDCKATTGDSEFYDTYSITACRIDCETRYLVENCNCRMVHMPGDAPYCTPEQYKECADPALDFLVEKDNEYCVCEMPCNVTRYGKELSMVKIPSKASAKYLAKKYNKSEQYIGENILVLDIFFEALNYETIEQKKAYEVAGLLGDIGGQMGLFIGASILTVLELFDYAYEVIKHR
Does B1 bind?
Result: binds
